Data set [1] has as its target T1, FtsA(ΔMTS) (Escherichia coli, UniProt P0ABH0).
T1 sequence (P0ABH0 1-404): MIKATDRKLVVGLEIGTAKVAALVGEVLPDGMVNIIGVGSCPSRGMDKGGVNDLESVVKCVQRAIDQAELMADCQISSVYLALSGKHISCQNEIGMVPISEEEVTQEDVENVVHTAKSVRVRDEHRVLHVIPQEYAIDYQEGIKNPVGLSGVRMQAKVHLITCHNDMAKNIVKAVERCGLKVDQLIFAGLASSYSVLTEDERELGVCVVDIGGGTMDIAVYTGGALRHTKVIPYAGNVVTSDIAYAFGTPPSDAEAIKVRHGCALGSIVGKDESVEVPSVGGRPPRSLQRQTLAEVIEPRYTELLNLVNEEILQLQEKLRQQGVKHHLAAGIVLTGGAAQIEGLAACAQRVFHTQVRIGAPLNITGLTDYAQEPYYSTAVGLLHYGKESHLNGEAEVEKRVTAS
The experiment in a line: sedimentation of polymers. The note with it: 50 mM Tris-HCl pH 7.5, 150 mM KCl, 4 mM MgCl2, 23 °C; polymerisation. The format is biochemical.

In data set [2] the target is T1, FtsA(ΔMTS). The note with it: 50 mM Tris-HCl pH 7.5, 150 mM KCl, 4 mM MgCl2, 23 °C, ATP 4 mM; polymerisation.
Data set [3] concerns the molecule itself. The experiment in a line: negative-stain transmission electron microscopy.
Data set [4] has as its target T2, FtsA(ΔMTS) (E. coli, UniProt P0ABH0 1-404).
T2 sequence: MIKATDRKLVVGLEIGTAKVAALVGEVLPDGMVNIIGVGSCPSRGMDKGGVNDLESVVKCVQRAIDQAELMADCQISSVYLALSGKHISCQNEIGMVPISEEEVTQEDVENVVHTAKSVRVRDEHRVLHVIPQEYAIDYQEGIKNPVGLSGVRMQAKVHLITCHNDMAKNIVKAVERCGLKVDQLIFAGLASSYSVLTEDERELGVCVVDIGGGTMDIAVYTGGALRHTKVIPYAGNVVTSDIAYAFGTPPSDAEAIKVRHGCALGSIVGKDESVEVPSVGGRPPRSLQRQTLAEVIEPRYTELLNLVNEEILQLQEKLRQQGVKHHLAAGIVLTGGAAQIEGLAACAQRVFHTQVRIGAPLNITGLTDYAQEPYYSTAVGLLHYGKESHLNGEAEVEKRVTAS
The experiment in a line: negative-stain transmission electron microscopy.

The target in another data set is T3, FtsA(E14R) (E. coli, UniProt P0ABH0 1-420, E14R).
T3 sequence: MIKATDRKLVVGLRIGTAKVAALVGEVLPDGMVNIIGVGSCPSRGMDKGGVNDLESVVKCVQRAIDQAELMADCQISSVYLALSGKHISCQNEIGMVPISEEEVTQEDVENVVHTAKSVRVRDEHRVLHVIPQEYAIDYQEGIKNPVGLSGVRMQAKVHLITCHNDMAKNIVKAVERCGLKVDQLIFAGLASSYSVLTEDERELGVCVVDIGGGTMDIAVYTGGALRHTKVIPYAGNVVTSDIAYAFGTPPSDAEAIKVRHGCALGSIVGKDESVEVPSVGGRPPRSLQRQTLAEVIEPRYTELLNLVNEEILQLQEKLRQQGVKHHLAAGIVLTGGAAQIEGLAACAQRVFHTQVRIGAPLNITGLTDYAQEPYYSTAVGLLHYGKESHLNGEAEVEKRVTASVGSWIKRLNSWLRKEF
The experiment in a line: co-sedimentation.

For another data set, the target named is T4, Escherichia coli FtsA (E. coli, UniProt P0ABH0 1-420).
T4 sequence: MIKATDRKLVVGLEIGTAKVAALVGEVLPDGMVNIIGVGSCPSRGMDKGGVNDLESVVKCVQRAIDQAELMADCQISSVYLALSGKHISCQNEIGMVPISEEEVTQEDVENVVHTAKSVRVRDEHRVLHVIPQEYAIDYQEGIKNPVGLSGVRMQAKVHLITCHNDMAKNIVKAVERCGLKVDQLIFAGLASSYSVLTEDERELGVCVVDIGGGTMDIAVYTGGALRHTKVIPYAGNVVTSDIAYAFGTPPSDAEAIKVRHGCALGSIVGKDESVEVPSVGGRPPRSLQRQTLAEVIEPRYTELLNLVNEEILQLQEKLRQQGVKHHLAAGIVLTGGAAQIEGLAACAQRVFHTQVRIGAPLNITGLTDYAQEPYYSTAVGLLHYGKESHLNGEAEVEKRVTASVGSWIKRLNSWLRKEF
The experiment in a line: co-sedimentation.

Data set [5] concerns the target T2, FtsA(ΔMTS). The experiment in a line: bead recruitment assay.

Like-named read-outs stand apart in the source and are kept apart here.

As to `Nc1ncnc2c1ncn2[C@@H]1O[C@H](COP(=O)(O)OP(=O)(O)O)[C@@H](O)[C@H]1O` [ADP], the “% FtsA(ΔMTS) in pellet” value on FtsA(ΔMTS) [1] is reported as 22.4%. `Nc1ncnc2c1ncn2[C@@H]1O[C@H](COP(=O)(O)OP(=O)(O)OP(=O)(O)O)[C@@H](O)[C@H]1O` [ATP]: on FtsA(ΔMTS) [2], the “% FtsA(ΔMTS) in pellet” value was found to be 50.0%.

B1: Escherichia coli FtsZ (natural protein)
chain: MFEPMELTNDAVIKVIGVGGGGGNAVEHMVRERIEGVEFFAVNTDAQALRKTAVGQTIQIGSGITKGLGAGANPEVGRNAADEDRDALRAALEGADMVFIAAGMGGGTGTGAAPVVAEVAKDLGILTVAVVTKPFNFEGKKRMAFAEQGITELSKHVDSLITIPNDKLLKVLGRGISLLDAFGAANDVLKGAVQGIAELITRPGLMNVDFADVRTVMSEMGYAMMGSGVASGEDRAEEAAEMAISSPLLEDIDLSGARGVLVNITAGFDLRLDEFETVGNTIRAFASDNATVVIGTSLDPDMNDELRVTVVATGIGMDKRPEITLVTNKQVQQPVMDRYQQHGMAPLTQEQKPVAKVVNDNAPQTAKEPDYLDIPAFLRKQAD
With B1, the binding result (in data set [3]; in the data set with FtsA(ΔMTS) [4]; with FtsA(E14R); with Escherichia coli FtsA) was “binds” each time.

B2: H6-Gfp-FtsZ (natural protein)
chain: MFEPMELTNDAVIKVIGVGGGGGNAVEHMVRERIEGVEFFAVNTDAQALRKTAVGQTIQIGSGITKGLGAGANPEVGRNAADEDRDALRAALEGADMVFIAAGMGGGTGTGAAPVVAEVAKDLGILTVAVVTKPFNFEGKKRMAFAEQGITELSKHVDSLITIPNDKLLKVLGRGISLLDAFGAANDVLKGAVQGIAELITRPGLMNVDFADVRTVMSEMGYAMMGSGVASGEDRAEEAAEMAISSPLLEDIDLSGARGVLVNITAGFDLRLDEFETVGNTIRAFASDNATVVIGTSLDPDMNDELRVTVVATGIGMDKRPEITLVTNKQVQQPVMDRYQQHGMAPLTQEQKPVAKVVNDNAPQTAKEPDYLDIPAFLRKQAD
As to B2, the binding result with FtsA(ΔMTS) [5] is on record as “binds”.

These data come from PMC8897712 (The Journal of Biological Chemistry, 2022).
